The values that follow come from patent US20070031849A1, “Three-dimensional structure of DNA recombination/repair protein and use thereof” (priority 2001, published 2007).

T1: HsRad52 protein (HsRad521-212) (Homo sapiens, UniProt P43351)
T1 construct: hexahistidine (N, cleaved yes); made in house; host or cells: E. coli JM109 (DE3), pET15-b
T1 sequence (P43351 1-212): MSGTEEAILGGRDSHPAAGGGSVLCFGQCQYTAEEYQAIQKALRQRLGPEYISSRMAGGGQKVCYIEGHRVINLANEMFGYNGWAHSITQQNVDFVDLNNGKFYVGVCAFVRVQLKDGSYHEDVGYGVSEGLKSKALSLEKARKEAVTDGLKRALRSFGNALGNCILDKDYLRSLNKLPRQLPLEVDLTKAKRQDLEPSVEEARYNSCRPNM

T2: HsRad52(1-212) wild type (Homo sapiens, UniProt P43351 SEQ:1-212)
T2 sequence: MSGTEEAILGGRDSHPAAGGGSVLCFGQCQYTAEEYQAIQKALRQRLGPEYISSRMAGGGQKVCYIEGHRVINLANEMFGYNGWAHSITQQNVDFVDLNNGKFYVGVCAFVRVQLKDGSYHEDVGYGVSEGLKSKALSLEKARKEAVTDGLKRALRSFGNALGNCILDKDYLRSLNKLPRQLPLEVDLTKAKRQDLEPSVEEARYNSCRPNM

B1: R55A: point mutant of HsRad521-212, arginine at position 55 substituted with alanine (protein)
chain: MSGTEEAILGGRDSHPAAGGGSVLCFGQCQYTAEEYQAIQKALRQRLGPEYISSAMAGGGQKVCYIEGHRVINLANEMFGYNGWAHSITQQNVDFVDLNNGKFYVGVCAFVRVQLKDGSYHEDVGYGVSEGLKSKALSLEKARKEAVTDGLKRALRSFGNALGNCILDKDYLRSLNKLPRQLPLEVDLTKAKRQDLEPSVEEARYNSCRPNMALGHPQLQQVTSPSRPSHAVIPADQDCSSRSLSSSAVESEATHQRKLRQKQLQQQFRERMEKQQVRVSTPSAEKSEAAPPAPPVTHSTPVTVSEPLLEKDFLAGVTQELIKTLEDNSEKWAVTPDAGDGVVKPSSRADPAQTSDTLALNNQMVTQNRTPHSVCHQKPQAKSGSWDLQTYSADQRTTGNWESHRKSQDMKKRKYDPS
B2: H69A: point mutant of HsRad521-212, histidine at position 69 substituted with alanine (protein)
chain: MSGTEEAILGGRDSHPAAGGGSVLCFGQCQYTAEEYQAIQKALRQRLGPEYISSRMAGGGQKVCYIEGARVINLANEMFGYNGWAHSITQQNVDFVDLNNGKFYVGVCAFVRVQLKDGSYHEDVGYGVSEGLKSKALSLEKARKEAVTDGLKRALRSFGNALGNCILDKDYLRSLNKLPRQLPLEVDLTKAKRQDLEPSVEEARYNSCRPNMALGHPQLQQVTSPSRPSHAVIPADQDCSSRSLSSSAVESEATHQRKLRQKQLQQQFRERMEKQQVRVSTPSAEKSEAAPPAPPVTHSTPVTVSEPLLEKDFLAGVTQELIKTLEDNSEKWAVTPDAGDGVVKPSSRADPAQTSDTLALNNQMVTQNRTPHSVCHQKPQAKSGSWDLQTYSADQRTTGNWESHRKSQDMKKRKYDPS
B3: R70A: point mutant of HsRad521-212, arginine at position 70 substituted with alanine (protein)
chain: MSGTEEAILGGRDSHPAAGGGSVLCFGQCQYTAEEYQAIQKALRQRLGPEYISSRMAGGGQKVCYIEGHAVINLANEMFGYNGWAHSITQQNVDFVDLNNGKFYVGVCAFVRVQLKDGSYHEDVGYGVSEGLKSKALSLEKARKEAVTDGLKRALRSFGNALGNCILDKDYLRSLNKLPRQLPLEVDLTKAKRQDLEPSVEEARYNSCRPNMALGHPQLQQVTSPSRPSHAVIPADQDCSSRSLSSSAVESEATHQRKLRQKQLQQQFRERMEKQQVRVSTPSAEKSEAAPPAPPVTHSTPVTVSEPLLEKDFLAGVTQELIKTLEDNSEKWAVTPDAGDGVVKPSSRADPAQTSDTLALNNQMVTQNRTPHSVCHQKPQAKSGSWDLQTYSADQRTTGNWESHRKSQDMKKRKYDPS
B4: Y65A: point mutant of HsRad521-212, tyrosine at position 65 substituted with alanine (protein)
chain: MSGTEEAILGGRDSHPAAGGGSVLCFGQCQYTAEEYQAIQKALRQRLGPEYISSRMAGGGQKVCAIEGHRVINLANEMFGYNGWAHSITQQNVDFVDLNNGKFYVGVCAFVRVQLKDGSYHEDVGYGVSEGLKSKALSLEKARKEAVTDGLKRALRSFGNALGNCILDKDYLRSLNKLPRQLPLEVDLTKAKRQDLEPSVEEARYNSCRPNMALGHPQLQQVTSPSRPSHAVIPADQDCSSRSLSSSAVESEATHQRKLRQKQLQQQFRERMEKQQVRVSTPSAEKSEAAPPAPPVTHSTPVTVSEPLLEKDFLAGVTQELIKTLEDNSEKWAVTPDAGDGVVKPSSRADPAQTSDTLALNNQMVTQNRTPHSVCHQKPQAKSGSWDLQTYSADQRTTGNWESHRKSQDMKKRKYDPS

One series deals with T1, HsRad52 protein (HsRad521-212). Briefly: Screening for HsRad52-binding compounds by one-dimensional 1H-NMR. Conditions: calculated from signal intensity of the NMR spectrum; binding force of Compound A defined as 1. The method, then: Among the ligand candidate compounds obtained in Example 8, one candidate compound was in view of the binding free energy change (ΔG) obtained by AutoDock and solubility. The compound was dissolved in DMSO-d6 to be adjusted to 455.7 μM. The HsRad521-212 protein prepared in Example 3 was dissolved to 152 μM using buffer solution A (dissolved in heavy water to 10 mM Tris-dll, pH 7.5)/200 mM KCl). Using them, two types of samples namely the ligand candidate compound alone and the ligand candidate compound to which the HsRad52 protein was added at 1:1 were prepared.
The final concentration of the ligand candidate compound is 21.7 μM.
The final concentrations of the ligand candidate compound and the HsRad52 protein are 21.7 μM, respectively.
One-dimensional ^1H-NMR of the individual samples was measured, to observe whether or not any change existed between prior to and after the addition of HsRad52 protein. Consequently, the NMR spectrum of a sample of ID AK968-41170131 with a chemical name of cis-6-[4-(4-isobutyl-phenyl)-5-methyl-thiazol-2-ylcarbamoyl]-3,4-dimethyl-cyclohex-3-enec arboxylic acid (Compound A, −11.71 kcal/mol) as such ligand candidate compound is shown in FIGS. 5 through 7. […] In FIG. 6, a slight increase of the base line due to the mixing with the protein can be observed, but apparently, Compound A-derived two signals around 7.5 ppm disappeared.
Herein, all the NMR spectra were taken in deuterium, using Bruker DRX500 NMR spectrophotometer at 298 K.
Using such method, the plural ligand candidate compounds obtained in Example 8 were adjusted to various concentrations to measure the NMR spectra. Compounds detected with the interaction with HsRad52 are shown below in Table 4. Herein, the strength of a binding force relatively calculated from the signal intensity of the NMR spectrum is shown as relative binding force, provided that the binding force of the Compound A is defined as 1.
Regarding `CCCc1ccc(-c2nc(NC(=O)C3CC(C)=C(C)CC3C(=O)O)sc2C)cc1` (stereo not drawn) [E, 3,4-Dimethyl-6-[5-methyl-4-(4-propyl-phenyl)-thiazol-2-ylcarbamoyl]-cyclohex-3-enecarboxylic acid], the “Relative Binding force” value was 0.5.
Take `CC1=C(C)CC(C(=O)Nc2nc(-c3ccc(C)cc3C)c(C)s2)C(C(=O)O)C1` (stereo not drawn) [D, 6-[4-(2,4-Dimethyl-phenyl)-5-methyl-thiazol-2-ylcarbamoyl]-3,4-dimethyl-cyclohex-3-enecarboxylic acid]: the “Relative Binding force” value was 0.2.
Still for that read-out and setting: for `CCCCc1ccc(-c2nc(NC(=O)C3C4CCC(O4)C3C(=O)O)sc2C)cc1` (stereo not drawn) [C, 3-[4-(4-Butyl-phenyl)-5-methyl-thiazol-2-ylcarbamoyl]-7-oxa-bicyclo[2.2.1]heptane-2-carboxylic acid] the value was 0.5.
As for `CC1=C(C)CC(C(=O)Nc2nc(-c3ccc(C(C)C)cc3)c(C)s2)C(C(=O)O)C1` (stereo not drawn) [Compound B, 6-[4-(4-Isopropyl-phenyl)-5-methyl-thiazol-2-ylcarbamoyl]-3,4-dimethyl-cyclohex-3-enecarboxylic acid], the “Relative Binding force” value was 0.5.

Another series relates to SAT-1 single-stranded DNA. Briefly: Gel shift assay: single-stranded DNA binding of HsRad521-212 point mutants. Conditions: 0.25 to 2 μM mutant; compared with wild type HsRad521-212. The method, then:
The single-stranded and double-stranded DNAs binding activities of the six types of point mutants thus prepared from HsRad521-212 were detected by gel shift assay method. The substrate DNA used by the method was prepared as described below. The pGsat4 of double-stranded DNA was prepared by inserting a 198-bp DNA fragment from human α-satellite into a plasmid PGEM-T East vector (manufactured by Promega). The 3.2-kb plasmid DNA was prepared by a gentle lysis method using sarcosyl, without alkali modification of the host E. coli, so as to avoid the irreversible denaturation. As the single-stranded DNA, a 50-base oligonucleotide purified by HPLC as shown in SEQ ID NO:2 was purchased from Roche Biochemical.
The 5′ terminus of the oligonucleotide was labeled with radioactivity in the presence of [γ^32P] ATP using T4 polynucleotide kinase (New England Biolabs) and then purified on a column Chromaspin-10 (manufactured by Clontech).
For gel shift assay, a reaction mixtures containing final concentratins of 50 mM Hepes-KOH (pH 7.5), 40 mM KCl, 1 mM MgCl2, 0.1 mg/ml BSA, 1 mM DTT, 2% glycerol and 0.25 to 2 μM mutants of HsRad521-212 was used. For single-stranded DNA binding assay, 1 μl of 1 μM ^32P-labeled SAT-1 single-stranded DNA (nucleotide) was mixed with 9 μl of the reaction mixture, which was incubated at 37° C. for 5 minutes. Subsequently, 1 μl of 12% […] solution was added, to immobilize HsRad52 and the single-stranded DNA. After incubating for 20 minutes, a 6-fold volume of staining solution for electrophoresis was added. The reaction mixture was resolved by 1% agarose gel electrophoresis in 0.5×TBE buffer at 3.3 V/cm and ambient temperature. After electrophoresis, the gel was dried for detection by autoradiography. The amount of the free single-stranded DNA was assayed by an image analyzer BAS2500 manufactured by Fuji Film. […] Compared with the wild type HsRad521-212, the single-stranded DNA binding activity of all of the point mutants was lowered.
Take B1: the “Single-stranded DNA binding activity” value is listed as “lost most of the binding activity to the single-stranded DNA”.
As to B2, the “Single-stranded DNA binding activity” value is on record as “lost most of the binding activity to the single-stranded DNA”.
Still for that read-out and setting: next, B3: “lost most of the binding activity to the single-stranded DNA”; B4: “lost most of the binding activity to the single-stranded DNA”.

Another series deals with T2, HsRad52(1-212) wild type. Briefly: EMSA; 50 mM Hepes-KOH pH 7.5, 40 mM KCl, 1 mM MgCl2, 37 C, glutaraldehyde fixed; 0.25-2 uM protein; complex formation inhibited by Compound A. Conditions: tags: His6 removed by thrombin; chain copies: 11 (undecameric ring, stated); label: 5'-32P.
Method: For gel shift assay, a reaction mixtures containing final concentratins of 50 mM Hepes-KOH (pH 7.5), 40 mM KCl, 1 mM MgCl₂, 0.1 mg/ml BSA, 1 mM DTT, 2% glycerol and 0.25 to 2 μM mutants of HsRad52₁₋₂₁₂ was used. For single-stranded DNA binding assay, 1 μl of 1 μM ³²P-labeled SAT-1 single-stranded DNA (nucleotide) was mixed with 9 μl of the reaction mixture, which was incubated at 37° C. for 5 minutes. Subsequently, 1 μl of 12% glyceraldehyde solution was added, to immobilize HsRad52 and the single-stranded DNA. After incubating for 20 minutes, a 6-fold volume of staining solution for electrophoresis was added. The reaction mixture was resolved by 1% agarose gel electrophoresis in 0.5×TBE buffer at 3.3 V/cm and ambient temperature. After electrophoresis, the gel was dried for detection by autoradiography. The amount of the free single-stranded DNA was assayed by an image analyzer BAS2500 manufactured by Fuji Film.
Subsequently, the mixture was fixed with 0.2% glutaraldehyde for 20 minutes and electrophoresed on 1% agarose gel.
Turning to ATTTCATGCTAGACAGAAGAATTCTCAGTAACTTCTTTGTGCTGTGTGTA (ssDNA) [SAT-1 50-mer], the binding result is reported as “binds”.
